In patent publication EP4814000A1:

What was measured:
003m-P215S-1×GCN4t (RSV) [1] = assay: flow cytometry, Expi293F cells, Lipofectamine 2000-mRNA; row 003M-P215S-1×GCNt (ORIG)
003m-P215S-1×GCN4t (RSV) [2] = assay: flow cytometry, Expi293F cells, Lipofectamine 2000-mRNA; row 003m-P215S-1×GCN4t-opti3
[3] = molecular target: wild-type RSV B F (RSV B); assay: flow cytometry, Expi293F cells, Lipofectamine 2000-mRNA; row WT-RQ2
[4] = molecular target: RSV B-003m-P215S-1×GCN4t-ori_linker (RSV B); assay: flow cytometry, Expi293F cells, Lipofectamine 2000-mRNA; mRNA RQ1
[5] = molecular target: RSV B-003m-P215S-1×GCN4t-C102A-C362S (RSV B); assay: as above
[6] = molecular target: RSV B-003m-P215S-1×GCN4t-G46S (RSV B); assay: as above
RSV B-003m-P215S (RSV B) [7] = assay: as above
[8] = molecular target: RSV B-003m-P215S-1×GCN4t (RSV B); assay: as above
[9] = molecular target: RSV B-003m-P215S-1×GCN4t-C155S-C290S (RSV B); assay: as above
[10] = molecular target: RSV B-003m-P215S-1×GCN4t-C486D-C489D (RSV B); assay: as above
[11] = molecular target: RSV B-003m-P215S-1×GCN4t-F190S (RSV B); assay: as above
[12] = molecular target: RSV B-003m-P215S-1×GCN4t-D92E (RSV B); assay: as above
003m-P215S-1×GCN4t (RSV) [13] = assay: flow cytometry, Expi293F cells, Lipofectamine 2000-mRNA; row 003M-P215S-1×GCN4t (ORIG)
003m-P215S (RSV) [14] = assay: flow cytometry, Expi293F cells, mRNA-LNP (RL151)
003m-P215S-ΔF111 (RSV) = assay: flow cytometry, Expi293F cells, mRNA-LNP (RL151)
003m-P215S-ΔF111-S-3N = assay: flow cytometry, Expi293F cells, mRNA-LNP (RL151)
003m-P215S-1×GCN4t (RSV) [15] = assay: flow cytometry, Expi293F cells, mRNA-LNP (RL151)
[16] = molecular target: 003m-P215S-ΔF111-1×GCN4t (RSV); assay: flow cytometry, Expi293F cells, mRNA-LNP (RL151)
003m-P215S-S-3N [17] = assay: flow cytometry, Expi293F cells, mRNA-LNP (RL151)
003m-P215S (RSV) [18] = assay: flow cytometry, Expi293F cells, Lipofectamine 2000-mRNA
003m-P215S-2×GCN4t (RSV) = assay: as above
003M-P215S-L (RSV) = assay: as above
003M-P215S-S (RSV) = assay: as above
003M-P215S-L-3N (RSV) = assay: as above
003m-P215S-S-3N [19] = assay: as above
[20] = molecular target: RSV B-003m-P215S-1×GCN4t-ori_linker (RSV B); assay: flow cytometry, Expi293F cells, Lipofectamine 2000-mRNA; mRNA RQ3
RSV B-003m-P215S (RSV B) [21] = assay: as above
[22] = molecular target: RSV B-003m-P215S-1×GCN4t (RSV B); assay: as above
[23] = molecular target: RSV B-003m-P215S-1×GCN4t-C155S-C290S (RSV B); assay: as above
[24] = molecular target: RSV B-003m-P215S-1×GCN4t-C486D-C489D (RSV B); assay: as above
[25] = molecular target: RSV B-003m-P215S-1×GCN4t-F190S (RSV B); assay: as above
[26] = molecular target: RSV B-003m-P215S-1×GCN4t-D92E (RSV B); assay: as above
[27] = molecular target: wild-type RSV B F (RSV B); assay: flow cytometry, Expi293F cells, Lipofectamine 2000-mRNA; row WT-RQ3
003m-P215S-1×GCN4t (RSV) [28] = assay: flow cytometry, Expi293F cells, Lipofectamine 2000-mRNA; row 003m-P215S-1×GCN4t (ORIG)
003m-P215S-1×GCN4t (RSV) [29] = assay: flow cytometry, Expi293F cells, Lipofectamine 2000-mRNA; row 003m-P215S-1×GCN4t
003m-P215S-1×GCN4t (RSV) [30] = assay: flow cytometry, Expi293F cells, Lipofectamine 2000-mRNA; row 003m-P215S-1×GCN4t-opti5

**Q.** With AM14-AF488 (antibody) as the substance, how does the MFI (003m-P215S-1×GCN4t (RSV) [1]) read?
**A.** 2560

**Q.** What about the MFI (003m-P215S-1×GCN4t (RSV) [2]) of the same substance?
**A.** 3430

**Q.** And the MFI [3]?
**A.** 206000

**Q.** What about the MFI [4] of the same substance?
**A.** 175

**Q.** What about the MFI [5] of the same substance?
**A.** 3640

**Q.** And the MFI [6]?
**A.** 4140

**Q.** And the MFI (RSV B-003m-P215S (RSV B) [7])?
**A.** 496000

**Q.** What about the MFI [8] of the same substance?
**A.** 7340

**Q.** And the MFI [9]?
**A.** 48400

**Q.** And the MFI [10]?
**A.** 8130

**Q.** What about the MFI [11] of the same substance?
**A.** 11100

**Q.** What about the MFI [12] of the same substance?
**A.** 763

**Q.** And the MFI (003m-P215S-1×GCN4t (RSV) [13])?
**A.** 2560

**Q.** And the MFI (003m-P215S (RSV) [14])?
**A.** 20000

**Q.** What about the MFI (003m-P215S-ΔF111 (RSV)) of the same substance?
**A.** 45200

**Q.** And the MFI (003m-P215S-ΔF111-S-3N)?
**A.** 49100

**Q.** What about the MFI (003m-P215S-1×GCN4t (RSV) [15]) of the same substance?
**A.** 4180

**Q.** What about the MFI [16] of the same substance?
**A.** 821

**Q.** And the MFI (003m-P215S-S-3N [17])?
**A.** 5920

**Q.** And the MFI (003m-P215S (RSV) [18])?
**A.** 90100

**Q.** What about the MFI (003m-P215S-2×GCN4t (RSV)) of the same substance?
**A.** 1890

**Q.** What about the MFI (003M-P215S-L (RSV)) of the same substance?
**A.** 4540

**Q.** What about the MFI (003M-P215S-S (RSV)) of the same substance?
**A.** 5620

**Q.** And the MFI (003M-P215S-L-3N (RSV))?
**A.** 17500

**Q.** And the MFI (003m-P215S-S-3N [19])?
**A.** 42400

**Q.** And the MFI [20]?
**A.** 182

**Q.** What about the MFI (RSV B-003m-P215S (RSV B) [21]) of the same substance?
**A.** 353000

**Q.** What about the MFI [22] of the same substance?
**A.** 5060

**Q.** What about the MFI [23] of the same substance?
**A.** 47600

**Q.** And the MFI [24]?
**A.** 7590

**Q.** What about the MFI [25] of the same substance?
**A.** 11200

**Q.** And the MFI [26]?
**A.** 814

**Q.** And the MFI [27]?
**A.** 55800

**Q.** What about the MFI (003m-P215S-1×GCN4t (RSV) [28]) of the same substance?
**A.** 4150

**Q.** What about the MFI (003m-P215S-1×GCN4t (RSV) [29]) of the same substance?
**A.** 30100

**Q.** What about the MFI (003m-P215S-1×GCN4t (RSV) [30]) of the same substance?
**A.** 2980

**Q.** How did the MFI (003m-P215S-1×GCN4t (RSV) [1]) turn out when D25-AF488 (antibody) was run?
**A.** 3840

**Q.** What about the MFI (003m-P215S-1×GCN4t (RSV) [2]) of the same substance?
**A.** 4990

**Q.** And the MFI [3]?
**A.** 138000

**Q.** What about the MFI [4] of the same substance?
**A.** 480

**Q.** What about the MFI [5] of the same substance?
**A.** 13900

**Q.** And the MFI [6]?
**A.** 4570

**Q.** What about the MFI (RSV B-003m-P215S (RSV B) [7]) of the same substance?
**A.** 364000

**Q.** What about the MFI [8] of the same substance?
**A.** 8770

**Q.** And the MFI [9]?
**A.** 94600

**Q.** And the MFI [10]?
**A.** 8170

**Q.** And the MFI [11]?
**A.** 13500

**Q.** And the MFI [12]?
**A.** 2250

**Q.** And the MFI (003m-P215S-1×GCN4t (RSV) [13])?
**A.** 3840

**Q.** What about the MFI (003m-P215S (RSV) [14]) of the same substance?
**A.** 16400

**Q.** What about the MFI (003m-P215S-ΔF111 (RSV)) of the same substance?
**A.** 37300

**Q.** What about the MFI (003m-P215S-ΔF111-S-3N) of the same substance?
**A.** 44800

**Q.** What about the MFI (003m-P215S-1×GCN4t (RSV) [15]) of the same substance?
**A.** 3880

**Q.** What about the MFI [16] of the same substance?
**A.** 682

**Q.** What about the MFI (003m-P215S-S-3N [17]) of the same substance?
**A.** 6730

**Q.** And the MFI (003m-P215S (RSV) [18])?
**A.** 77200

**Q.** And the MFI (003m-P215S-2×GCN4t (RSV))?
**A.** 2150

**Q.** And the MFI (003M-P215S-L (RSV))?
**A.** 5820

**Q.** What about the MFI (003M-P215S-S (RSV)) of the same substance?
**A.** 8920

**Q.** What about the MFI (003M-P215S-L-3N (RSV)) of the same substance?
**A.** 23400

**Q.** What about the MFI (003m-P215S-S-3N [19]) of the same substance?
**A.** 48800

**Q.** What about the MFI [20] of the same substance?
**A.** 515

**Q.** And the MFI (RSV B-003m-P215S (RSV B) [21])?
**A.** 265000

**Q.** What about the MFI [22] of the same substance?
**A.** 6190

**Q.** And the MFI [23]?
**A.** 93500

**Q.** What about the MFI [24] of the same substance?
**A.** 7160

**Q.** What about the MFI [25] of the same substance?
**A.** 13100

**Q.** And the MFI [26]?
**A.** 2110

**Q.** What about the MFI [27] of the same substance?
**A.** 36900

**Q.** What about the MFI (003m-P215S-1×GCN4t (RSV) [28]) of the same substance?
**A.** 8390

**Q.** And the MFI (003m-P215S-1×GCN4t (RSV) [29])?
**A.** 54200

**Q.** What about the MFI (003m-P215S-1×GCN4t (RSV) [30]) of the same substance?
**A.** 4620
